Test results: PMC4681436
Values joined by “and” are separate entries in the source; they are usually repeats but may differ in a detail not shown here. Equal values may be shown once.

Tests used:
[1] = molecular target: AidC, N-acyl-L-homoserine lactone (AHL) lactonase from Chryseobacterium sp. strain StRB126 (Chryseobacterium sp. strain StRB126); experiment: SEC-MALS
[2] = test system: CCCCCCCCCC(=O)N[C@H]1CCOC1=O; experiment: purified protein; settings: 1 mM Hepes pH 7.5, 30 μM ZnSO4, 1% methanol, dizinc enzyme
CCCCC(=O)N[C@H]1CCOC1=O = experiment: purified protein; settings: 1 mM Hepes pH 7.5, 30 μM ZnSO4, 1% methanol, dizinc enzyme
CCCCCC(=O)N[C@H]1CCOC1=O = experiment: purified protein; settings: 1 mM Hepes pH 7.5, 30 μM ZnSO4, 1% methanol, dizinc enzyme
[3] = test system: CCCCCCCCCCCC(=O)N[C@H]1CCOC1=O; experiment: purified protein; settings: 1 mM Hepes pH 7.5, 30 μM ZnSO4, 1% methanol, dizinc enzyme
CC(C)(C)OC(=O)NC1CCOC1=O = experiment: purified protein; settings: 1 mM Hepes pH 7.5, 30 μM ZnSO4, 1% methanol, dizinc enzyme
[4] = test system: CCCCCCCC(=O)N[C@H]1CCOC1=O; experiment: purified protein; settings: 1 mM Hepes pH 7.5, 30 μM ZnSO4, 1% methanol, dizinc enzyme
CCCC(=O)N[C@H]1CCOC1=O = experiment: purified protein; settings: 1 mM Hepes pH 7.5, 30 μM ZnSO4, 1% methanol, dizinc enzyme
[5] = test system: O=C(/C=C/c1ccccc1)N[C@H]1CCOC1=O; experiment: purified protein; settings: 1 mM Hepes pH 7.5, 30 μM ZnSO4, 1% methanol, dizinc enzyme
[6] = test system: CCCCCC(=O)CC(=O)N[C@H]1CCOC1=O; experiment: purified protein; settings: 1 mM Hepes pH 7.5, 30 μM ZnSO4, 1% methanol, dizinc enzyme
[7] = test system: CCCCCCC(=O)N[C@H]1CCOC1=O; experiment: purified protein; settings: 1 mM Hepes pH 7.5, 30 μM ZnSO4, 1% methanol, dizinc enzyme

AidC, N-acyl-L-homoserine lactone (AHL) lactonase from Chryseobacterium sp. strain StRB126 (enzyme)
stoichiometry N [1]: 2 and 4

AidC (Chryseobacterium sp. StRB126)
Km [2]: 12 ± 4 µM
kcat [2]: 5.2 ± 0.4 s⁻¹
kcat/Km [2]: 430000 M⁻¹ s⁻¹
Km (CCCCC(=O)N[C@H]1CCOC1=O): 130 ± 20 µM
kcat (CCCCC(=O)N[C@H]1CCOC1=O): 57 ± 3 s⁻¹
kcat/Km (CCCCC(=O)N[C@H]1CCOC1=O): 440000 M⁻¹ s⁻¹
Km (CCCCCC(=O)N[C@H]1CCOC1=O): 61 ± 4 µM
kcat (CCCCCC(=O)N[C@H]1CCOC1=O): 59 ± 1 s⁻¹
kcat/Km (CCCCCC(=O)N[C@H]1CCOC1=O): 970000 M⁻¹ s⁻¹
Km [3]: 7 ± 4 µM
kcat [3]: 0.4 ± 0.05 s⁻¹
kcat/Km [3]: 57000 M⁻¹ s⁻¹
Km (CC(C)(C)OC(=O)NC1CCOC1=O): 740 ± 70 µM
kcat (CC(C)(C)OC(=O)NC1CCOC1=O): 44 ± 1 s⁻¹
kcat/Km (CC(C)(C)OC(=O)NC1CCOC1=O): 59000 M⁻¹ s⁻¹
Km [4]: 83 ± 10 µM
kcat [4]: 45 ± 3 s⁻¹
kcat/Km [4]: 540000 M⁻¹ s⁻¹
Km (CCCC(=O)N[C@H]1CCOC1=O): 470 ± 60 µM
kcat (CCCC(=O)N[C@H]1CCOC1=O): 39 ± 2 s⁻¹
kcat/Km (CCCC(=O)N[C@H]1CCOC1=O): 83000 M⁻¹ s⁻¹
Km [5]: 470 ± 80 µM
kcat [5]: 25 ± 2 s⁻¹
kcat/Km [5]: 53000 M⁻¹ s⁻¹
Km [6]: 130 ± 20 µM
kcat [6]: 28 ± 1 s⁻¹
kcat/Km [6]: 220000 M⁻¹ s⁻¹
Km [7]: 47 ± 5 µM
kcat [7]: 80 ± 2 s⁻¹
kcat/Km [7]: 1.7e+06 M⁻¹ s⁻¹
